{
  "source": "patent US20250277030A1",
  "about": "“ANTI-NAPI2B ANTIBODIES AND METHODS OF USE” (Zymeworks BC Inc., priority 2022, published 2025)",
  "key": {"[1]": {"biological_target": "T1, human NaPi2b (Homo sapiens, UniProt O95436)", "T1 construct": "host or cells: HEK293-6e", "T1 sequence (O95436 1-690)": "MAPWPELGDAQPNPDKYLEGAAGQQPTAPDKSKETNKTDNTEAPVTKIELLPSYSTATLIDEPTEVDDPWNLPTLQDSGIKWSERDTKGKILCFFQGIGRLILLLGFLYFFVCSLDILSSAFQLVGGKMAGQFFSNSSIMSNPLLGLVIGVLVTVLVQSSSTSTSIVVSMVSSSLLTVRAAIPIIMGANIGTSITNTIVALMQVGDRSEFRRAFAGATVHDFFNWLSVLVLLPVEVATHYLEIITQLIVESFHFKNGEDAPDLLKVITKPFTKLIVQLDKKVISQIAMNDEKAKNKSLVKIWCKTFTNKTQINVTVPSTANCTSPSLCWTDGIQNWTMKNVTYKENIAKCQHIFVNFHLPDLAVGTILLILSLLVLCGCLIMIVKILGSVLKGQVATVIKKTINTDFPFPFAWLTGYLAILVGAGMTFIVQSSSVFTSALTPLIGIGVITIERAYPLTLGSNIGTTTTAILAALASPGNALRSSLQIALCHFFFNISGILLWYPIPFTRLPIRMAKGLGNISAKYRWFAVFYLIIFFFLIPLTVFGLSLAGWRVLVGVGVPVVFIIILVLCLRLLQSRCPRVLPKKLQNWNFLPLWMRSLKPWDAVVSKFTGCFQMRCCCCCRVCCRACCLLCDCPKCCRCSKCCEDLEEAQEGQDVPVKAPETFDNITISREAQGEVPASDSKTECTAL", "assay": "Flow cytometry binding to HEK293-6e cells transfected with human NaPi2b (Example 5)", "conditions": "transfected HEK293-6e cells", "method": "The binding cross-reactivity of humanized antibody variant v29456 to human, cynomolgus and mouse NaPi2b was assessed by flow cytometry using HEK293-6e transfected cells.\n(§1) Briefly, HEK293-6e cells were transfected for ˜24 hours to transiently express human NaPi2b, cynomolgus or mouse NaPi2b, at 1 μg of DNA per 1 million cells. Following transfection, 50,000 cells per well were seeded in V-bottom 96-well plates and incubated with 200 nM of primary antibody for 18-24 hours at 4° C. to prevent internalization. Post-incubation, cells were washed and stained with anti-Human IgG Fc AF647 conjugate (Jackson Immuno Research Labs, West Grove, PA, Cat. No. 109-605-098, Lot. No. 124868) at 4° C. for 1 hour. Following staining and washing, fluorescence was detected by flow cytometry on BD LSRFortessa™ Cell Analyzer (BD Biosciences, Franklin Lake, NJ) with 10,000 minimum events collected per well. The AF647/APC-A GeoMean (fluorescence signal geometric mean, proportional to anti-Human AF647 binding) was calculated for the live singlet cell population for each primary antibody using FlowJo™ v8 software (BD Biosciences, Franklin Lake, NJ). The Bmax and Kd of each primary antibody were calculated using GraphPad Prism Version 9 (GraphPad Software, San Diego, CA)"}, "[2]": {"tested_on": "HCC-78 cells", "assay": "Internalization by flow cytometry in HCC-78 cells", "type": "cell-based, human", "conditions": "antibody 10 nM", "method": "Briefly, antibodies were fluorescently labeled by coupling to a Fab fragment AF488 conjugate targeting anti-Human IgG Fe (Jackson Immuno Research Labs, West Grove, PA; Cat. No. 109-547-008) at a 1:1 molar ratio in PBS pH 7.4 (Thermo Fisher Scientific, Waltham, MA; Cat. No. 10010-023), for 24 hours at 4° C. Cells were seeded at 50,000 cells/well in RPMI 1640, ATCC modification (Thermo Fisher Scientific, Waltham, MA) supplemented with 10% fetal bovine serum (Thermo Fisher Scientific, Waltham, MA) in 48-well plates and incubated overnight under standard culturing conditions (37° C./5% CO2) to allow attachment. […] Following incubation, cells were dissociated, washed, and surface AF488 fluorescence was quenched using an anti-AF488 antibody (Life Technologies, Carlsbad, CA; Cat. No. A-11094) at 100 nM for 30 minutes at 4° C. […] (internalized fluorescence) was detected by flow cytometry on a BD LSRFortessa™ Cell Analyzer (BD Biosciences, Franklin Lake, NJ) with 1,000 minimum events collected per well. The AF488/FITC-A GeoMean (fluorescence signal geometric mean, proportional to anti-Human Fab AF488 labelling) was calculated for the live single cell population using FlowJo™ Version 10.8.1 (BD Biosciences, Franklin Lake, NJ) and plotted using GraphPad Prism Version 9 (GraphPad Software, San Diego, CA)."}, "[3]": {"biological_target": "T2, NaPi2b expressed on IGROV-1 cells (Homo sapiens, UniProt O95436)", "T2 construct": "IGROV-1 cells express endogenous NaPi2b at a high level; endogenous in cells; host or cells: IGROV-1", "T2 sequence (O95436 1-690)": "T1 sequence (O95436 1-690)", "assay": "Cellular binding of antibody and ADCs to IGROV-1 cells by flow cytometry (Example 14)", "method": "as §1\nThe ability of ADCs to bind to cells expressing NaPi2b was assessed. […] Binding to endogenous high NaPi2b-expressing cell lines IGROV-1 and HCC-78 was assessed by flow cytometry according to methods described in Example 5."}, "[4]": {"biological_target": "T3, NaPi2b expressed on TOV-21G cells (Homo sapiens, UniProt O95436)", "T3 construct": "IGROV-1 and TOV-21G cells express endogenous NaPi2b at high and moderate levels, respectively; endogenous in cells; host or cells: TOV-21G", "T3 sequence (O95436 1-690)": "T1 sequence (O95436 1-690)", "assay": "Cellular binding to TOV-21G cells by flow cytometry (Example 19)", "conditions": "NB = no binding (apparent Kd >150 nM)", "method": "Briefly, cells were seeded at 50,000 cells/well in conical-bottom 96-well plates and treated with test antibody for 24 hours at 4° C. to prevent internalization. Palivizumab (anti-RSV antibody, v22277) was included as a negative control. […] Following incubation, cells were washed and stained with anti-Human IgG Fc AF647 conjugate (Jackson Immuno Research Labs, West Grove, PA; Cat. No. 109-605-098) at 4° C. for 30 min. Following incubation and washing, fluorescence was detected by flow cytometry on a BD LSRFortessa™ Cell Analyzer (BD Biosciences, Franklin Lake, NJ) with 1,000 minimum events collected per well. The AF647/APC-A GeoMean (fluorescence signal geometric mean, proportional to anti-Human AF647 binding) was calculated for the live cell population using FlowJo™ Version 10.8.1 (BD Biosciences, Franklin Lake, NJ) and plotted for each test antibody using GraphPad Prism Version 9 (GraphPad Software, San Diego, CA).\nThe ability of the humanized antibody variants v38591 and v29456 to bind to NaPi2b expressed on cells was assessed on endogenous NaPi2b-expressing tumor cell lines IGROV-1 (ovarian adenocarcinoma) and TOV-21G (ovarian carcinoma) by flow cytometry. IGROV-1 and TOV-21G cells express endogenous NaPi2b at high and moderate levels, respectively, as described in Example 10.\nCellular binding was performed according to methods described in Example 13."}},
  "data": [
    {"substance": "v22277: anti-RSV antibody palivizumab, negative control; has a heterodimeric Fc [reference compound]", "values": [
      {"measurement": "Binding to human NaPi2b, in words", "setting": "[1]", "result": "did not bind"},
      {"measurement": "Internalized Fluorescence Fold-Over Palivizumab", "setting": "[2]; HCC-78, 5 hrs", "result": 1.0, "unit": "fold"},
      {"measurement": "Internalized Fluorescence Fold-Over Palivizumab", "setting": "[2]; HCC-78, 24 hrs", "result": 1.0, "unit": "fold"},
      {"measurement": "Binding to IGROV-1 cells, in words", "setting": "[3]", "result": "did not bind"},
      {"measurement": "Kd", "setting": "[4]", "result": "> 0.15", "unit": "µM"}
    ]}
  ]
}
